Results: article PMC7857400

Biological target: SARS-CoV-2 spike protein receptor binding domain (RBD) (SARS-CoV-2) (UniProt P0DTC2)

Substance homotrimeric Nb20 (Nb20_(3)) has an IC50 of neutralisation, pseudovirus luciferase assay of 4.1 pM.

With homotrimeric Nb21 (Nb21_(3)) the IC50 of neutralisation, pseudovirus luciferase assay was 1.3 pM.
